Assay results taken from PMC314469, “Protein Interaction Networks by Proteome Peptide Scanning” (PLoS Biology, 2004).

T1: Abp1 SH3 (ABP1_YEAST), P15891
T1 chain: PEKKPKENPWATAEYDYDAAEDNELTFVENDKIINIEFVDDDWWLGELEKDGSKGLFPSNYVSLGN


Biological target: T1, Abp1 SH3 (ABP1_YEAST), P15891
Test: SPOT array

Row | Binder | normalised SPOT signal, Boehringer light units (BLU); mean over the file's lines of this peptide
1 | ATTEFETPELFKP [YIL031W 418-430] | 78.7
2 | DHPKLKSPISSKP [YPR186C 218-230] | 98
3 | ASTLGITPADSKP [YMR016C 645-657] | 93.1
4 | SHTKNTHPDFSKP [YLR374C 54-66] | 39.3
5 | DELPKYEDLFPKKP [YKL020C 937-950] | 132
6 | ASSSPFIPKKRKP [YLR430W 2217-2229] | 2110
7 | DEGYRESELPPTKP [YGR013W 516-529] | 62.8
8 | ATTNDDKKTEPDKP [YJL041W 183-196] | 63.8
9 | DAGPSFSPLHKKP [YDR096W 741-753] | 231
10 | DGKTMTKPFVEKP [YLR410W 340-352] | 171
11 | SFKIFPLPKDGKP [YOR056C 307-319] | 102
12 | ATFETKFLVVPFKP [YDR200C 169-182] | 74
13 | SASILLLEALPKKP [YDR135C 180-193] | 112
14 | DDFSEIKSNSPSKP [YOL125W 257-270] | 58.4
15 | SVRIIKLPTVIKP [YDR407C 928-940] | 175
16 | SGVLITDKEYPVRP [YKL196C 76-89] | 56
17 | DESFTASDVIPKKP [YOL055C 307-320] | 142
18 | DGKPTATPSPFRP [YMR153W 198-210] | 158
19 | ATLDGKLKHIPRRP [YEL007W 23-36] | 630
20 | SAKPMNIPEVLKP [YLR077W 535-547] | 144

Row | Binder | normalised SPOT signal, Boehringer light units (BLU); mean over the file's lines of this peptide
21 | DENEKESRHYPIKP [YMR147W 118-131] | 104
22 | SLWWNLEPQESKP [YMR003W 182-194] | 68
23 | DGTAAAGPLDLKP [YCR077C 93-105] | 47.1
24 | SSQGINVPGTKKP [YIL029C 115-127] | 178
25 | DSVRYFEPKTRRP [YER090W 132-144] | 659
26 | DGKVSPPPIRNRP [YPL150W 616-628] | 6430
27 | DHVDIFVPSGGRP [YDL215C 852-864] | 33.3
28 | SKVDDLIPLASRP [YGL044C 219-231] | 111
29 | DGGMAFNPDPKKP [YER095W 332-344] | 105
30 | DESFTASDAVPKKP [YPR121W 328-341] | 112
31 | DESTVNEPKTRRP [YLR417W 380-392] | 95.6
32 | DIADLEEPFLPRP [YIL109C 377-389] | 65.6
33 | DHHNIDIDPLPRRP [YLR299W 80-93] | 122
34 | AWYISYGEWGPRRP [YIL111W 69-82] | 78.4
35 | DDGTFSIYSIPSKP [YPL100W 471-484] | 169
36 | DHGLYNFPSSVRP [YGR271W 1320-1332] | 77.3
37 | ASTYGRSPSGFRP [YKR089C 707-719] | 517
38 | SEMFRDLPESKKP [YOR175C 203-215] | 86.3
39 | AVLLIKKNKLPPRP [YLR281C 14-27] | 9430
40 | ATSIGNSPVTAKP [YAR033W 173-185] | 71

Row | Binder | normalised SPOT signal, Boehringer light units (BLU); mean over the file's lines of this peptide
41 | SFTAYSSPKKNKP [YPL100W 257-269] | 324
42 | DFRNPLLPIDNRP [YGL170C 266-278] | 138
43 | SRIPSLAPHFGKP [YKL103C 202-214] | 99.3
44 | DAENIRVNFVPSKP [YER047C 185-198] | 133
45 | SDTDTLPEAPPAKP [YOR066W 218-231] | 108
46 | AYNLNVPPPKKRP [YHR009C 132-144] | 1510
47 | SSQEDGQPRVLKP [YLR106C 2240-2252] | 118
48 | DEEDDEDPVSPKP [YGL197W 684-696] | 90.3
49 | ATKVDATPEESKP [YLR335W 584-596] | 103
50 | SSYGSWSPYASKP [YMR244W 79-91] | 46.2
51 | SVYALSSQDEPIRP [YLR450W 583-596] | 37.7
52 | DGKILPLPKADKP [YGR134W 1092-1104] | 18.9
53 | DDLIRLTVKKPARP [YKL220C 443-456] | 446
54 | DDLETYVPHKKRP [YOL084W 269-281] | 120
55 | DSLFTKSLEDPEKP [YBR257W 10-23] | 113
56 | DASSVELTEVPSKP [YDR464W 561-574] | 25.2
57 | DGYTRFHDETPAKP [YER027C 294-307] | 101
58 | SINNSEVPTNDKP [YPR068C 139-151] | 72.1
59 | SSSSSGLPATDKP [YOR068C 68-80] | 59.6
